Results: US20130230533A1 (Regeneron, published 2013)

Experiments:
[1] = target: T1, human CD48 (on primary human peripheral blood mononuclear cells) (human, UniProt P09326 27-220); assay: cell-based or functional assay
T1 sequence: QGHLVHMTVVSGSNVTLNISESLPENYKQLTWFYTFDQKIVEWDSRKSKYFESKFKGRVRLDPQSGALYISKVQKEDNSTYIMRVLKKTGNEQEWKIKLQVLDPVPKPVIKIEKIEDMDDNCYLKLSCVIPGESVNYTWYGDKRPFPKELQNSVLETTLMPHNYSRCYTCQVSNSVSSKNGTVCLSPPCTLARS

[2] = target: T1, human CD48 (on primary human peripheral …); assay: cell-based or functional assay; remark: listed apart in the source
[3] = target: T2, Monomeric monkey CD48-mmH (monkey); assay: SPR (Biacore), antibody captured by anti-Fc, CD48 in solution, 25 C
T2 construct: Soluble monkey CD48 with a myc-myc-hexa-histidine C-terminal tag; the whole entry is the construct; also called mfCD48-mmH
T2 chain: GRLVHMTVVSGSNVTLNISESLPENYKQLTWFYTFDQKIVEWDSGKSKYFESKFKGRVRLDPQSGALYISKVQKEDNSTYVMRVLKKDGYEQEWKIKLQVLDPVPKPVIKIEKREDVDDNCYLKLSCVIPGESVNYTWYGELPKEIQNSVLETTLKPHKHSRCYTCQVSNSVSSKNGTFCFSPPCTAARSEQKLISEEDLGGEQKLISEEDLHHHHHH
Procedure: (§1) Measurements were conducted on a T100-2 BIACORE™ instrument (Biacore Life Sciences division of GE Healthcare, Piscataway, N.J.). Antibodies (either with mouse Fc [designated “H2M” or “H3M”] or human IgG4 Fc [designated “H4H”]) were captured through an anti-Fc chip surface, and CD48 was flowed over the surface either in a monomeric (soluble CD48 expressed with a myc-myc-hexa-histidine C-terminal tag [mmH]) or dimeric (soluble CD48 expressed with a C-terminal Fc fusion [mFc]) format.
(§2) The soluble CD48 was applied to the flow cell in separate injections at different concentrations, and kinetic association (kₐ) and dissociation (kd) rate constants were determined by fits to the kinetic binding data using Biacore software. Binding dissociation equilibrium constants and dissociation half-times were calculated from the kinetic rate constants as: KD=kd/kₐ; t_{1/2}=(ln 2/kd) (units: ka=M⁻¹*s⁻¹; kd=s⁻¹; KD=M; T½=min) (Tables 3-6).

Dimeric monkey CD48-mFc [4] = target: T3, Dimeric monkey CD48-mFc (monkey); assay: as above
T3 construct: Soluble monkey CD48 with a C-terminal Fc fusion [mFc]; the whole entry is the construct
T3 chain: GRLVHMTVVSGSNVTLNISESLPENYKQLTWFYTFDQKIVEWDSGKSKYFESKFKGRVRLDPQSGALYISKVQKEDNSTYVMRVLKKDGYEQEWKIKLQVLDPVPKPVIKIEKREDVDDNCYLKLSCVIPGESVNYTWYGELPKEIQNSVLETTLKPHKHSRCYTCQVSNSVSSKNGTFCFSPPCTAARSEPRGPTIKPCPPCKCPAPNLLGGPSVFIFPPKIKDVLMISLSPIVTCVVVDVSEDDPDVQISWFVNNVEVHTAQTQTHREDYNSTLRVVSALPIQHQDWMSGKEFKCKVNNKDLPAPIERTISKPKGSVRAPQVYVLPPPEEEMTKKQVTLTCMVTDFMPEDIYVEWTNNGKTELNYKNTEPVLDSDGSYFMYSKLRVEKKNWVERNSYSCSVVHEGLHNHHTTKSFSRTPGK
Procedure: as §1, §2

Monomeric human CD48-mmH = target: T4, Monomeric human CD48-mmH (human); assay: SPR (Biacore), antibody captured by anti-Fc, CD48 in solution, 37 C
T4 chain: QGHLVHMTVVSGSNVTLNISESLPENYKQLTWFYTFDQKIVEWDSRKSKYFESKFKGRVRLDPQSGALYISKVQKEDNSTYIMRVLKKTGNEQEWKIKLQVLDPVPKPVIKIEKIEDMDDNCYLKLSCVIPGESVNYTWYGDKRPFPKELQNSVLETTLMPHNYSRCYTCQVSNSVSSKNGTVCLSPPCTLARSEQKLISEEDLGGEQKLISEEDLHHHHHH
Outline: (§3)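 Antibodies (mouse or human IgG4 Fc) captured on anti-Fc surface; soluble CD48, monomeric (myc-myc-His tag) or dimeric (Fc fusion), injected at several concentrations. ka and kd from kinetic fits; KD=kd/ka, t½=ln2/kd.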

[5] = target: T2, Monomeric monkey CD48-mmH; assay: as above
Outline: as §3

Dimeric human CD48-mFc = target: T5, Dimeric human CD48-mFc (human); assay: as above
T5 construct: the whole entry is the construct; also called hCD48-mFc
T5 chain: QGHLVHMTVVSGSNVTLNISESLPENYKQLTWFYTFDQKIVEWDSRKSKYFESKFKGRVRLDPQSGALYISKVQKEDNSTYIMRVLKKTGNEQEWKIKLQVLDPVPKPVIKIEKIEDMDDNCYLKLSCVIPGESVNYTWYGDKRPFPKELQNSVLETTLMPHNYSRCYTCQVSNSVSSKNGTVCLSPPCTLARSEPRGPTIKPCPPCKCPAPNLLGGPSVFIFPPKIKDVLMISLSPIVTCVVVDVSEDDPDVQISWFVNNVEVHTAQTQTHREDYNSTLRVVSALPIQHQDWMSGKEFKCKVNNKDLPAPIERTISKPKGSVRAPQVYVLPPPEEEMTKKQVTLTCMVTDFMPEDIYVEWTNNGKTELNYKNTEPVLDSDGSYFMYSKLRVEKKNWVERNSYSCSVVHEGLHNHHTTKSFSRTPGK
Outline: as §3

Dimeric monkey CD48-mFc [6] = target: T3, Dimeric monkey CD48-mFc; assay: as above
Outline: as §3

[7] = target: T6, biotinylated dimeric human CD48 protein expressed as a fusion with mouse IgG2a Fc (human, biotinylated); assay: competition ELISA; blocks bio-hCD48-mFc binding to coated h2B4-mFc
T6 construct: also called bio-hCD48-mFc; Dimeric human CD48-mFc
T6 chain: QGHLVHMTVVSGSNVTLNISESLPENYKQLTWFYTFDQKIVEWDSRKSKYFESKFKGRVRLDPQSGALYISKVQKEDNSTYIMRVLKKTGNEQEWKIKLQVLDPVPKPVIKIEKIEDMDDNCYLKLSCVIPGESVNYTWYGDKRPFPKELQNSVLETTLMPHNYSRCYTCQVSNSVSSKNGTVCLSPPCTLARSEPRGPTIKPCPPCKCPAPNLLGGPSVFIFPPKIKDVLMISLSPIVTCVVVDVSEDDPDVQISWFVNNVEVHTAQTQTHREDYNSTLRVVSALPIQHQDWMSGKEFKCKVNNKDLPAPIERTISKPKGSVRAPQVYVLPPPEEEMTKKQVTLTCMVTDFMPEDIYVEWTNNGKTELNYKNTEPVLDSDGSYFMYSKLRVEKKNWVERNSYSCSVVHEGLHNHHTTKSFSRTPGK
Procedure: (§4) The ability of human anti-CD48 monoclonal antibodies to block human CD48 and monkey CD48 binding to the human cognate ligand, human 2B4, was measured using a competition sandwich ELISA (Table 8). Constant amounts of biotinylated dimeric human CD48 protein expressed as a fusion with mouse IgG2a Fc (“bio-hCD48-mFc” [SEQ ID NO: 387]) or monomeric monkey CD48 expressed with a tag consisting of 2 myc and one 6-His epitopes (“mfCD48-mmH” [SEQ ID NO: 386]) were separately titrated with varying amounts of antibodies. These antibody-protein complexes were incubated (1 hr, 25° C.) before being transferred to microtiter plates coated with a dimeric construct expressing the human 2B4 receptor fused to a either human IgG1 (h2B4-hFc [R&D Systems, Inc., Minneapolis, Minn., Cat. No. 1039-2B]) or mouse IgG2a Fc (h2B4-mFc [SEQ ID NO: 389). After a 1 hr at 25° C. the wells were washed and bound human CD48 was detected with streptavidin conjugated with horse-radish peroxidase (HRP), and monkey CD48 was detected with an HRP conjugated anti-myc polyclonal antibody. The ELISA was developed with a TMB solution to produce a colorimetric reaction and quenched with sulfuric acid before reading absorbance at 450 nm on a Victor X5 plate reader. Sigmoidal dose response curves were fit to the data using Prism™ software. […] (Tables 8 and 9, NB=no binding observed)

[8] = target: T7, monomeric monkey CD48 expressed with a tag consisting of 2 myc and one 6-His epitopes (monkey); assay: competition ELISA; blocks mfCD48-mmH binding to coated h2B4-mFc
T7 construct: also called mfCD48-mmH; Monomeric monkey CD48-mmH
T7 chain: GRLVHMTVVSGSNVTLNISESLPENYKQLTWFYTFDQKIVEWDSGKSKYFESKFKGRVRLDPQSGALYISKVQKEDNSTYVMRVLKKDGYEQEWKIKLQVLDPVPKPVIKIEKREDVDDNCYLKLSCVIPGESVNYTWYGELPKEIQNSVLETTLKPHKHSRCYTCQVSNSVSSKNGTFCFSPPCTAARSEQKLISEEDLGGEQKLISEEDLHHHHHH
Procedure: as §4

B1: H4H1769Pa (antibody, human IgG4, V domains shown)
VH: QVQLVQSGAEVKKPGASVKVSCKTSGYTFAGYGITWVRQAPGRGLEWMGWVSAYNGDTDYAQSLQGRVTMTTDTSTSTAYMELRSLRSDDTAMYYCARDRYSSSSGYFDYWGQGTLVTVSS
VL: DIQMTQSPSSVSASVGDRVTITCRASQGISSWLAWHQQKPGKAPKVLIYAASSLHSGVPSRFSGSGSGTEFTLTISSLQPEDFATYYCQQANTFPYTFGQGTKLEIK
For B1, the “Inhibition of IFN-gamma Release IC50; Donor 9” value [1] was 5.7e-12 Molar, the “Inhibition of IFN-gamma Release IC50; Donor 11” value [1] was 1.9e-11 Molar and the “% Blockade of IFNγ release, MLR; D2” value [2] was 60%. The “% Blockade of IFNγ release, MLR; D3” value [2] was 39%, the “% Blockade of IFNγ release, MLR; D5” value [2] was 43% and the “% Blockade of IFNγ release, MLR; D6” value [2] was 60%. For the same binder, the “% Blockade of IFNγ release, MLR; D7” value [2] was 51% and the “% Blockade of IFNγ release, MLR; D8” value [2] was 40%.

B2: H4H1778P (antibody, human IgG4, V domains shown)
VH: QVQLVESGGGVVQPGRSLRLSCAASGFTFSNYGMHWVRQAPGKGLEWVAVIWYDESSKYYTDSVKGRFTISRDNSQNTLYLQMTSLRAEDTAVYYCARDRWTYSHYFEYWGQGTLVTVSS
VL: DIQMTQSPSSVSASVGDRVTITCRASQGISSWVAWYQQKPGKAPKLLIYAASSLQSGVPSRFSGSGSGTDFTLTISSLQPEDFATYYCQQANSFPRTFGQGTKVEIK
notes: Human IgG4 Fc (H4H)
Binder B2 has a Kd [3] of 0.325 nM, a T½ [3] of 2.15 h and a koff [3] of 8.98e-05 s⁻¹. The kon [3] was 276000 M⁻¹ s⁻¹, the Kd (Dimeric monkey CD48-mFc [4]) was 0.046 nM and the T½ (Dimeric monkey CD48-mFc [4]) was 10.9 h. For the same binder, the koff (Dimeric monkey CD48-mFc [4]) was 1.77e-05 s⁻¹, the kon (Dimeric monkey CD48-mFc [4]) was 384000 M⁻¹ s⁻¹ and the Kd (Monomeric human CD48-mmH) was 0.837 nM. For the same binder, the T½ (Monomeric human CD48-mmH) was 1.7 h, the koff (Monomeric human CD48-mmH) was 0.000113 s⁻¹ and the kon (Monomeric human CD48-mmH) was 135000 M⁻¹ s⁻¹. The Kd [5] was 1.34 nM, the T½ [5] was 0.767 h and the koff [5] was 0.000253 s⁻¹. For the same binder, the kon [5] was 189000 M⁻¹ s⁻¹, the Kd (Dimeric human CD48-mFc) was 0.0746 nM and the T½ (Dimeric human CD48-mFc) was 5.45 h. It also gave a koff (Dimeric human CD48-mFc) of 3.53e-05 s⁻¹, a kon (Dimeric human CD48-mFc) of 473000 M⁻¹ s⁻¹ and a Kd (Dimeric monkey CD48-mFc [6]) of 0.0686 nM. It also gave a T½ (Dimeric monkey CD48-mFc [6]) of 5.35 h, a koff (Dimeric monkey CD48-mFc [6]) of 3.6e-05 s⁻¹ and a kon (Dimeric monkey CD48-mFc [6]) of 525000 M⁻¹ s⁻¹.

B3: H4H1770P (antibody, human IgG4, V domains shown)
VH: QVQLVQSGAEVKKPGAAVKVSCKASGYTFTAYGISWVRQAPGQGLEWMGWISAYDGDTNNAQKFQGRVTMTTDTSSSTAYMELRSLGSDDTAVYYCARDRYSSSSGYFDYWGQGTLVTVSS
VL: DIQMTQSPSSVSASVGDRVTITCRASQDISSWLAWSQQKPGKAPKALIYAASSLQSGVPSRFSGSGSGTDFTLTISSLQPEDFATYYCQQANSFPYTFGQGTKLEIK
notes: Human IgG4 Fc (H4H)
B3 gave an IC50 [7] of 0.02 nM and an IC50 [8] of 0.022 nM.
